Experimental data taken from patent publication US20260250737A1, “Engineered Luciferases and Luciferin Substrates” (Monod Bio, Inc., priority 2023, published 2026).

System: SmLux
Experiment: Computationally generated LgLux variants expressed in E. coli, tested in lysates with SmLux and substrate 1c
Assay type: biochemical
Protocol: LgLux sequences were designed computationally, and their activity measured as depicted schematically in FIG. 45.
A library of the computationally generated LgLux variants were expressed in E. coli and tested in lysates. 20 uM of SmLux and 50 uM of substrate 1c was used for the screening.
LgLux_4039 sequence is as set forth in SEQ ID NO:2773. MBIO-5103 through MBIO-5124, MBIO-5261 through MBIO-5295, MBIO-5101, and MBIO-5102 (SEQ ID NO:2815-SEQ ID NO:2873, respectively) are computationally generated LgLux. The sequences and activity of these LgLux are shown below in Table 21.
MBIO-5358 and MBIO-5360 through MBIO-5381 (SEQ ID NO:2774-SEQ ID NO:2796, respectively) are computationally generated LgLux.

[1] = Table 22, 20 uM SmLux, 50 uM substrate 1c
[2] = 20 uM SmLux, 50 uM substrate 1c
[3] = 50 uM substrate 1c, before SmLux peptide addition

Row | Molecule | Fold change upon SmLux peptide addition [1] | Baseline Signal (Normalized by expression) (Table 22, 50 uM substrate 1c) | Fold change upon SmLux peptide addition [2] | Baseline Signal (Normalized by expression) [3]
1 | MBIO-5358: computationally generated LgLux, SEQ ID NO 2774 (protein) MSEEQIRQDLLRFYEALDSGDAITAASLFNPGVTITLWDGTTFTSVEEFREWFESQFSTSKDALREISSLEVRGDTVEVTVRLSFTRNGQKHTVDLLQQFKFI | 243.66 | 440.6 | – | –
2 | MBIO-5365: computationally generated LgLux, SEQ ID NO 2780 (protein) MTPEELRQNLLRFYEALDSGDAVAAASLFNPGVTITLWDGTTFTSVEEFREWFETQFKTSKDALREIESLEVDGDTVRVTVRLTFTRDGEEQVVDLLQLFKFV | 359.8 | 1452.6 | – | –
3 | MBIO-5368: computationally generated LgLux, SEQ ID NO 2783 (protein) MTPEELRQNLLRFYEALDSGDAVAAKSLFNSGVTITLWDGATFTSIEKFREWFDTQFKTSKDALREIESLEVDGDTVRVTVRLTFTSDGEEQVVDLLQLFKFV | 4.95 | 366.8 | – | –
4 | MBIO-5370: computationally generated LgLux, SEQ ID NO 2785 (protein) MTPEEIRQNLRRFYEALDSGDAEAAKSLFDPGVTITLWDGTTFTSVEEFREWFEEQFKTSKDALREIESLEVDGDTVRVTVRLTFTRDGEEKVVDLLQLFKFV | 390.25 | 4567 | – | –
5 | MBIO-5366: computationally generated LgLux, SEQ ID NO 2781 (protein) MTPEELRQNLLRFYEALDSGDAVAAKSLFNPGVTITLWDGTTFTSVEEFREWFETQFKTSKDALREIESLEVDGDTVRVTVRLTFTRDGEEQVVDLLQLFKFV | 32.61 | 931.2 | – | –
6 | MBIO-5369: computationally generated LgLux, SEQ ID NO 2784 (protein) MTPEEIRQNLLRFYEALDSGDAEAAKSLFNPGVTITLWDGTTFTSVEEFREWFEEQFKTSKDALREIESLEVDGDTVRVTVRLTFTRDGEEKVVDLLQLFKFV | 289.49 | 760 | – | –
7 | MBIO-5367: computationally generated LgLux, SEQ ID NO 2782 (protein) MTPEELRQNLLRFYEALDSGDAVAAASLFNSGVTITLWDGATFTSIEKFREWFDTQFKTSKDALREIESLEVDGDTVRVTVRLTFTSDGEEQVVDLLQLFKFV | 6.08 | 231.6 | – | –
8 | 5123 (protein) MTPEKIRENVENFYAALASGDLEKAKALFDPGTTITLWDGTTFTSLEEFLAWFEKQFKASKDAKREIKSLEIEGDTVKVLVRLTYTVNGKEKTVDLLQLLKFV | – | – | 1.09 | 145.6
9 | MBIO-5381: computationally generated LgLux, SEQ ID NO 2796 (protein) MTPEERIANVLAFYAALASGDLEAAKALFNPGVTITLWDGTTFTSVEEFRAWFEEQFKTSKDALREIESIEVDGDTVRVLVRLTFVRDGEEKVVDLLQLFKFV | 22.28 | 158.6 | – | –
10 | MBIO-5360: computationally generated LgLux, SEQ ID NO 2775 (protein) MTPEELIANVLAFYAALASGDLVAAKALFNPGVTITLWDGTTFTSVEEFRAWFETQFKTSKDALREIESIEVDGDTVRVLVRLTFVRDGEEQVVDLLQLFKFV | 3.64 | 150.2 | – | –
11 | MBIO-5361: computationally generated LgLux, SEQ ID NO 2776 (protein) MTPEELIANVLAFYAALASGDLVAAKALFNSGVTITLWDGATFTSIEKFRAWFDTQFKTSKDALREIESIEVDGDTVRVLVRLTFVSDGEEQVVDLLQLFKFV | 5.17 | 156.4 | – | –
12 | MBIO-5373: computationally generated LgLux, SEQ ID NO 2788 (protein) MTPEERIANVLAFYAALASGDLEAAAALFNPGVTITLWDGTTFTSVEEFRAWFEEQFKTSKDALREIESIEVDGDTVRVLVRLTFVRDGEEKVVDLLQLFKFV | 151.01 | 388.2 | – | –
13 | 5122 (protein) MTPEEIFANVKAFYAALASGDLAAAKALFDPGTTITLWDGTTFTSLDEFLAWFEKQFKASKDAKREILSMEVEGDTVRVLVRLTYVKDGKEEVVDLLQLIKWV | – | – | 1.04 | 146.2
14 | MBIO-5377: computationally generated LgLux, SEQ ID NO 2792 (protein) MTPEERIADVRAFYAALASGDLEAAKALFDPGVTITLWDGTTFTSVEEFRAWFEEQFKTSKDALREIESIEVDGDTVRVLVRLSFTRNGQKHTVDLLQQFKFI | 205.44 | 324.4 | – | –
15 | MBIO-5372: computationally generated LgLux, SEQ ID NO 2787 (protein) MTPEERIADVLAFYAALASGDLEAAKALFNPGVTITLWDGTTFTSVEEFRAWFEEQFKTSKDALREIESIEVDGDTVRVLVRLTFVRDGEEKVVDLLQQFKFI | 20.86 | 210.6 | – | –
16 | MBIO-5371: computationally generated LgLux, SEQ ID NO 2786 (protein) MTPEERIADVLAFYAALASGDLEAAKALFNPGVTITLWDGTTFTSVEEFRAWFEEQFKTSKDALREIESIEVDGDTVRVLVRLSFTRNGQKHTVDLLQQFKFI | 48.58 | 234.6 | – | –
17 | MBIO-5364: computationally generated LgLux, SEQ ID NO 2779 (protein) MTPEERIANVRAFYAALASGDLEAAKALFDPGVTITLWDGTTFTSVEEFRAWFEEQFKTSKDALREIESIEVDGDTVRVLVRLSFTRNGQKHTVDLLQLFKFV | 172.59 | 376.8 | – | –
18 | MBIO-5363: computationally generated LgLux, SEQ ID NO 2778 (protein) MTPEERIANVLAFYAALASGDLEAAKALFNPGVTITLWDGTTFTSVEEFRAWFEEQFKTSKDALREIESIEVDGDTVRVLVRLSFTRNGQKHTVDLLQLFKFV | 32.23 | 339.2 | – | –
19 | MBIO-5379: computationally generated LgLux, SEQ ID NO 2794 (protein) MTPEERIADVRAFYAALASGDLEAAKALFDPGVTITLWDGTTFTSVEEFRAWFEEQFKTSKDALREIESIEVDGDTVRVLVRLTFVRDGEEKVVDLLQLFKFI | 176.25 | 338.4 | – | –
20 | MBIO-5378: computationally generated LgLux, SEQ ID NO 2793 (protein) MTPEERIADVRAFYAALASGDLEAAKALFDPGVTITLWDGTTFTSVEEFRAWFEEQFKTSKDALREIESIEVDGDTVRVLVRLTFVRDGEEKVVDLLQQFKFI | 85.83 | 197 | – | –
21 | MBIO-5362: computationally generated LgLux, SEQ ID NO 2777 (protein) MTPEERIANVLAFYAALASGDLEAAAALFNPGVTITLWDGTTFTSVEEFRAWFEEQFKTSKDALREIESIEVDGDTVRVLVRLSFTRNGQKHTVDLLQLFKFV | 27.24 | 906.4 | – | –
22 | MBIO-5380: computationally generated LgLux, SEQ ID NO 2795 (protein) MTPEERIADVRAFYAALASGDLEAAKALFDPGVTITLWDGTTFTSVEEFRAWFEEQFKTSKDALREIESIEVDGDTVRVLVRLTFVRDGEEKVVDLLQLFKFV | 157.38 | 322.6 | – | –
23 | 5124 (protein) MTPEEIIANVRAFYAALASGDLEAAKALFDPGTTITLWDGTTFTSLEEFLAWFEKQFDASKDAKREIVSIEVEGDTVRVLVRLTYTKDGKEQVVDLLQLLKFV | – | – | 1.07 | 187.6
